Source: publication PMC13480645

Target: MERS-CoV S2 stem helix peptide (MERS-CoV)

Chain of S2P6 (antibody) (VH): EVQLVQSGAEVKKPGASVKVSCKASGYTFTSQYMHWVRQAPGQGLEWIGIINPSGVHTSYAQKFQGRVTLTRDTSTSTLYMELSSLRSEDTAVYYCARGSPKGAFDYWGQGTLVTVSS
Chain of S2P6 (antibody) (VL): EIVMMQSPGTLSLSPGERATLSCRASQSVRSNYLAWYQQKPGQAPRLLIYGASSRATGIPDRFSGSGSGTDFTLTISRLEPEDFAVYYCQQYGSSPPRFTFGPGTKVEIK

S2P6 (antibody)
IC50 of neutralisation of MERS-CoV pseudovirus (HeLa-hDPP4 cells): 8.37 µg/mL
